The target in assay [1] is GP5 in the pVC vector (pVC-GP5) (HP-PRRSV-2 strain HuN4). As to the kind of experiment: split reporter (BiFC, NanoBiT); BiFC in HEK293T cotransfected with pVN and pVC plasmids, 24 hpt; YFP signal by confocal microscopy and ratio of YFP-positive cells by flow cytometry.
Assay [2] addresses N protein in the pVC vector (pVC-N) (HP-PRRSV-2 strain HuN4). The description is as above.

As for “N protein in the pVN vector (pVN-N) (natural protein)”, in assay [1], the percent of fluorescence-positive cells (BiFC) came out at 3.87%.
For the substance “nsp2 in the pVN vector (pVN-nsp2) (natural protein)”, in assay [2], the percent of fluorescence-positive cells (BiFC) stood at 32.1%.

(Values after publication PMC11784222.)
